One data set has as its system NCI-H82 tumors. Kind of data set: Efficacy (tumor growth) in NCI-H82 tumor model. In kind it is in vivo, mouse. As to conditions: Dunnett's multiple comparisons test, tumor volume in mm^3, NCI-H82, R2G2 mice. As to the method:
To determine the efficacy of radio-labelled (Pb-212) DARPin (MAM279) conjugate in inhibiting the growth of tumors that express DLL3, different dose regimens (single or repeated dose) of the conjugate were tested in a relevant mouse tumor model (NCI-H82).
Animals were under observation daily and 3× per week tumors were measured by caliper. Animals were sacrificed when tumors reached 1500 to 2000 mm^3 or if termination criteria were met. The data were expressed as average+/−SEM of tumor volume in mm^3.
To determine the efficacy of more frequent repeat-dosing of radio-labelled (Pb-212) DARPin (MAM279) conjugate in inhibiting the growth of tumors that express DLL3, a weekly repeat-dosing regimen of the conjugate was tested in a relevant mouse tumor model (NCI-H82).
Corresponding injections of buffer only were done as control. The first weekly injection of radio-labeled molecules was done 14 days after xenografting the NCI-H82 cells. Animals were under observation daily and 3× per week tumors were measured by caliper. Animals were sacrificed when tumors reached 1500 to 2000 mm^3 or if termination criteria were met. The data were expressed as average+/−SEM of tumor volume in mm^3. Results are shown in FIGS. 20A to 20D and Table 23.

In data set [1] the target is T1, Human DLL3 expressed on cells (HEK293T-hDLL3, NCI-H82, SHP-77, MC38-hDLL3) (human, UniProt Q9NYJ7 27-618).
T1 construct: also called DLL3 endogenously expressed on human cells
T1 sequence: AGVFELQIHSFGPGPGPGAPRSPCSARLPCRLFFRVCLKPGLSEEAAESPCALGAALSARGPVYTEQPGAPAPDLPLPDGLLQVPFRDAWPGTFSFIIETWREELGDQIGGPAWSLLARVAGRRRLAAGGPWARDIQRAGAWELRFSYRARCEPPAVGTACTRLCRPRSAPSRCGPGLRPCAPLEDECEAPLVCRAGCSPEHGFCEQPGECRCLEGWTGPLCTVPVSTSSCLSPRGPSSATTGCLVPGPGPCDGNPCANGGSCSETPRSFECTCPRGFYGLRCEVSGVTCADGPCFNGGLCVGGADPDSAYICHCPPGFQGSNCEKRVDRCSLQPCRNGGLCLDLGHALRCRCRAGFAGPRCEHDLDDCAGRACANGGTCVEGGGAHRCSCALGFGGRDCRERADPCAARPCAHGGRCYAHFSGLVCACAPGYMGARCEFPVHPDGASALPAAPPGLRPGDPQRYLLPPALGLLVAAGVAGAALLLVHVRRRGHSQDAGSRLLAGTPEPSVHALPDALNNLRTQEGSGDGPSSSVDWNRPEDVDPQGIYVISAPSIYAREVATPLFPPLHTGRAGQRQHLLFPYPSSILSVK
Kind of data set: flow cytometry titration on HEK293T-hDLL3 cells, without HSA. As to the method:
(§1) Cell binding titration assays were performed for selected His-tagged single domain (1 D) and two domain (2D) designed ankyrin repeat proteins to determine binding to human DLL3 expressed on HEK293T-huDLL3 cells in absence and presence of human serum albumin. […] HEK293T-hDLL3 cells are HEK293T cells that were stably transfected to express human DLL3 on their surface.
(§2) In brief, 1×10⁵ cells/well were resuspended in 100 μl DARPin dilution (500 nM, 1:5 serial diluted) and incubated for 1 h at 4° C. Cells were washed twice with PBS and resuspended in 100 μl anti-DARPin antibody (rabbit anti-DARPin 1.4.8) and LIVE/DEAD fixable cell stain (1:1000, Thermo Fisher #L34957). This step was performed in absence and presence of […] Human Serum Albumin (CSL Behring #150570). After incubation and washing, cells were incubated with detection antibody for 30 minutes (Goat […] IgG (H+L), AF647, Thermo Fisher #21445). Cells were fixed (Paraformaldehyde Solution, LucernaChem) and acquired at Attune N×T (Thermo Life Technologies). Raw fcs files were exported and analyzed using FlowJo software. MFI values of live AF647-positive cells were exported from FlowJo and plotted using GraphPad Prism software.

The target of data set [2] is T1, Human DLL3 expressed on cells …. Kind of data set: flow cytometry titration on HEK293T-hDLL3 cells, with HSA. As to the method:
as §1, §2
Background: Flow cytometry measures light scatter and fluorescence of single cells or particles in a stream.

A further data set relates to NCI-H82 tumor model. The experiment in a line: Biodistribution of radio-labelled DARPin conjugates in NCI-H82 tumor model. As to conditions: mouse, in vivo, iv, 0.01 mg/kg. As to the method:
NCI-H82 tumor model. R2G2 mice were purchased from Envigo. All studies were conducted under the approval of the institutional IACUC committee. Animals were maintained under specific-pathogen-free (SPF) conditions with daily cycles of light and darkness (12 h/12 h), in line with ethical guidelines. No manipulations were performed during the first 5 days after arrival, to allow the animals to acclimatize to the new environment. All mice were monitored daily for assessment of physical condition and general well-being. NCI-H82 cells were purchased from ATCC (Catalog No. HTB-175). Solid xenografts were established by subcutaneous (SQ) injection of NCI-H82 cells in RPMI media mixed 1:1 with Corning® Matrigel® basement membrane matrix (GFR; Corning, Cat No 354230.). Cells were quantified using Countess cell counter. Each mouse was injected SQ with 5×10^6 NCI-H82 cells in 100 μL RPMI/GFR-Matrigel into the right flank of each mouse. Tumor volumes were estimated three times per week through calipering, according to the formula: volume=0.5×length×width^2 and grown until they reached 200-300 mm^3. Tumor-associated antigen level expressed in tumors, tumor vascularization profile and DLL3 soluble form in mouse serum was tested.
Biodistribution study. […] Radio-labeled (Pb-212) DARPin conjugates were then injected at 0.01 mg/kg (10 μCi DARPin conjugates) into the tail vein of R2G2 mice (females) xenografted subcutaneously (at age of about 7 weeks) with NCI-H82 cells (5 million cells, growth factor reduced Matrigel) and bearing tumors (5-10 mm in diameter). […] Biodistribution was monitored at 4 h and 24h post-injection. Mice were euthanized by CO2 inhalation and cervical dislocation. Blood, spleen, kidneys, liver and tumor were extracted, weighed and the radioactivity was determined with a γ-counter counter (such as Wizard^22470, Perkin Elmer). The data were expressed as the % injected dose/gram (% ID/g).
Radio-labeled (Pb-212) DARPin conjugates were then injected at 0.01 mg/kg (10 μCi DARPin conjugates) into the tail vein of R2G2 mice (females) xenografted subcutaneously (at age of about 7 weeks) with NCI-H82 cells (5 million cells, growth factor reduced Matrigel) and bearing tumors (5-10 mm in diameter). Biodistribution was monitored at 4 h and 24h post-injection. Mice were euthanized by CO2 inhalation and cervical dislocation. Kidneys and tumor were extracted, weighed and the radioactivity was determined with a γ-counter counter (such as Wizard^22470, Perkin Elmer). The data were expressed as the % injected dose/gram (% ID/g) and the tumor to kidney (T:K) ratio was determined.
Radio-labelled (Pb-212) DARPin conjugates were then injected at 0.01 mg/kg (10 μCi DARPin conjugates) (i) into the tail vein of R2G2 mice (females) xenografted subcutaneously (at age of about 7 weeks) with NCI-H82 cells (5 million cells, growth factor reduced Matrigel) and bearing tumors (5-10 mm in diameter), and (ii) into the tail vein of athymic nude mice (females) xenografted subcutaneously (at age of about 7 weeks) with hDLL3-MC38 cells (5 million cells, growth factor reduced Matrigel) and bearing tumors (5-10 mm in diameter). Biodistribution was monitored at 4 h and 24h post-injection. Mice were euthanized by CO2 inhalation and cervical dislocation. Blood, bladder, small intestine, colon, spleen, kidneys, liver, lung, heart, tail and tumor were extracted, weighed and the radioactivity was determined with a γ-counter (such as Wizard^22470, Perkin Elmer). The data were expressed as the % injected dose/gram (% ID/g).

B1: neg. control: negative control DARPin (SEQ ID NO: 26), DLL3-specific domain replaced with non-binding domain, DOTAM-conjugated, Pb-212 labelled (conjugate)
chain: GSDLGKKLLEAARAGQDDEVRELLKAGADVNAKDYFSHTPLHLAARNGHLKIVEVLLKAGADVNAKDFAGKTPLHLAADAGHLEIVEVLLKAGADVNAQDIFGKTPADIAADAGHEDIAEVLQKAAGSPTPTPTTPTPTPTTPTPTPTGSDLGKKLLEAARAGQDDEVRELLKAGADVNAKDKDGYTPLHLAAREGHLEIVEVLLKAGADVNAKDKDGYTPLHLAAREGHLEIVEVLLKAGADVNAQDKSGKTPADLAADAGHEDIAEVLQKAAGSGSC
modifications: DOTAM conjugate, Pb-212 label; Ankyrin repeat protein (control)
For B1, the “Mean Diff.” value in the data set with NCI-H82 tumors (Buffer only vs. (4 × 10μCi, 1 wk)) was −64.44.

B2: MAM088 (single domain ankyrin repeat protein, His-tagged) (designed binder)
chain: DLGKKLLAAAREGQDDEVRELLKAGADVNAKDIWGQTPLHIAAWFGHLEIVEVLLKAGADVNAKDQTGHTPLHLAAKFGHLEIVEVLLKAGADVNAQDLLGRTPADLAAEEGHEDIAEVLQKAA
notes: also called 1D DARPin; not shown: His-tag
The EC50 is the concentration needed to bring the measured effect to its halfway point. A lower EC50 goes with a more potent agent. With B2, the concentration for a half-maximal effect (EC50) in data set [1] is 5 nM; in data set [2], 5.1 nM.

B3: Non-binding DARPin control comprising SEQ ID NO: 21 (designed binder)
chain: DLGKKLLEAARAGQDDEVRELLKAGADVNAKDKDGYTPLHLAAREGHLEIVEVLLKAGADVNAKDKDGYTPLHLAAREGHLEIVEVLLKAGADVNAQDKSGKTPADLAADAGHEDIAEVLQKAA
notes: Negative control on HEK293T-hDLL3 cells
As for B3, the binding result in data set [1] was “no binding (tested: 500 nM)”.

B4: Rova conjugate: Rova antibody conjugated with chelator (DOTAM) and labeled with Pb-212, used as control molecule (conjugate, chains of the INN, looked up)
VH: QVQLVQSGAEVKKPGASVKVSCKASGYTFTNYGMNWVRQAPGQGLEWMGWINTYTGEPTYADDFKGRVTMTTDTSTSTAYMELRSLRSDDTAVYYCARIGDSSPSDYWGQGTLVTVSS
VL: EIVMTQSPATLSVSPGERATLSCKASQSVSNDVVWYQQKPGQAPRLLIYYASNRYTGIPARFSGSGSGTEFTLTISSLQSEDFAVYYCQQDYTSPWTFGQGTKLEIK
modifications: DOTAM chelator, 212Pb radiolabel
notes: Rova antibody conjugated with chelator (DOTAM) and labeled with Pb-212, used as control molecule
As for B4, the “Mean Diff.” value with NCI-H82 tumors (Buffer vs. conjugate (1 × 10μCi)) is listed as 119.6; in the data set with NCI-H82 tumors (Buffer vs. conjugate (4 × 10μCi, injections 2 weeks apart)), 256.3.

B5: MAM112 (single domain ankyrin repeat protein, His-tagged) (designed binder)
chain: DLGKKLLAAAADGQDDEVRELLQAGADVNAKDLFGYTPLHLAAWRGHLEIVEVLLEAGADVNAKDAAGETPLHLAAWFGHLEIVEVLLEAGADVNAQDVQGKTPADLAAKEGHEDIAEVLQQAA
notes: as for B2
Regarding B5, the EC50 worked out at 4.2 nM in data set [1] and 4.6 nM in data set [2].

B6: MAM120: Ankyrin repeat domain specific for DLL3 (SEQ ID NO: 4); single domain (1D) DARPin (protein)
chain: DLGTKLLSAAADGQDDEVRELLQAGADVNAKDLFGYTPLHLAAWRGHLEIVEVLLEAGADVNAKDAAGLTPLHLAAWFGHLEIVEVLLEAGADVNAQDVQGVTPADLAAKEGHEDIAEVLQQAA
modifications: Ankyrin repeat domain specific for DLL3 (MAM120)
For the molecule B6, in the data set on NCI-H82 tumor model (4 h), the “Blood % ID/g” value is listed as 0.1 % ID/g, the “Kidneys % ID/g” value is 65.5 % ID/g and the “Tumors % ID/g” value was found to be 2.6 % ID/g. In the data set on NCI-H82 tumor model (24 h), the “Blood % ID/g” value was determined as 0.1 % ID/g, the “Kidneys % ID/g” value was found to be 47.3 % ID/g and the “Tumors % ID/g” value stood at 2.9 % ID/g.

B7: MAM093 (single domain ankyrin repeat protein, His-tagged) (designed binder)
chain: DLGKKLLAAAAQGQDDEVRELLKAGANVNAKDLFGYTPLHLAAWRGHLEIVEVLLKAGADVNAKDAAGETPLHLAAWFGHLEIVEVLLKAGADVNAQDLQGKTPADLAAKEGHEDIAEVLQKAA
notes: as for B2
As to B7, the EC50 amounted to 4.9 nM in data set [1] and 5.5 nM in data set [2].

B8: MAM120 (single domain ankyrin repeat protein, His-tagged) (designed binder)
chain: DLGTKLLSAAADGQDDEVRELLQAGADVNAKDLFGYTPLHLAAWRGHLEIVEVLLEAGADVNAKDAAGLTPLHLAAWFGHLEIVEVLLEAGADVNAQDVQGVTPADLAAKEGHEDIAEVLQQAA
notes: as for B2
On to B8, for which the 50% effective concentration (EC50) was found to be 7 nM in data set [1] and 8 nM in data set [2].

For the origin of these results see patent US20250332297A1, “DLL3-SPECIFIC BINDING CONSTRUCTS AND THEIR USE IN RADIOTHERAPY” (MOLECULAR PARTNERS AG, priority 2024, published 2025).
